Source: publication PMC8869672

Target: T1, NADPH-cytochrome P450 reductase (human (endogenous in human liver microsomes)) (UniProt P16435)
T1 sequence: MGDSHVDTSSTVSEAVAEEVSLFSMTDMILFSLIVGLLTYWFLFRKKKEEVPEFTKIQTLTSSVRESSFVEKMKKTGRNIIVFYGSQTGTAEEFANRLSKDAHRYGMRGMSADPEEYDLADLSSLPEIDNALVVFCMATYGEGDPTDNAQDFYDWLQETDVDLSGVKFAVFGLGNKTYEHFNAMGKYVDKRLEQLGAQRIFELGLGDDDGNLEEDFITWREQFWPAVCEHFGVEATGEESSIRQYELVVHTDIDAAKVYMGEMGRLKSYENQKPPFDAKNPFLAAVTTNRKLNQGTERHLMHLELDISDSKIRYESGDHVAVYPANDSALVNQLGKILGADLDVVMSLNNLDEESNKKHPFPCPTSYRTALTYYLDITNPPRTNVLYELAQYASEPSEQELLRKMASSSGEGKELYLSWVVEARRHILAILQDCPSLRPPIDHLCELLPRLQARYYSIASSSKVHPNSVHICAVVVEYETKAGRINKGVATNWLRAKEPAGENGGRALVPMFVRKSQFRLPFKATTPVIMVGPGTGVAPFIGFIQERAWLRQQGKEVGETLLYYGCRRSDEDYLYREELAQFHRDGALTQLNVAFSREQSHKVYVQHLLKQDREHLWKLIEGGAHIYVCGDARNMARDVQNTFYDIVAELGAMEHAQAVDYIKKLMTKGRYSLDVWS

## C-terminally His-tagged and N-terminally truncated Δ3–20 CYP2E1 modified with benzophenone-4-maleimide (BPM) or 4-(N-succinimidylcarboxy)benzophenone (BPS) (from UniProt P05181 1-493) (enzyme)
  Vmax of 7-EFC deethylation by CYP2E1-BPM incorporated into insect cell microsomes with cDNA-expressed human CPR and cytochrome b5 (SS(CPR+b5)2E1-BPM), normalised per CPR: 0.104 s⁻¹
  Vmax of 7-EFC deethylation by CYP2E1-BPS incorporated into insect cell microsomes with cDNA-expressed human CPR and cytochrome b5 (SS(CPR+b5)2E1-BPS), normalised per CPR: 1.51 s⁻¹
